Key:
Destabilized IL-12 #2 [1] = system: Destabilized IL-12 #2
Destabilized IL-12 #5 [2] = system: Destabilized IL-12 #5
Destabilized IL-12 #2 [3] = assay: cell-based or functional assay
Destabilized IL-12 #5 [4] = assay: cell-based or functional assay
Destabilized IL-12 #11 = biological target: T1, Destabilized IL-12 #11
T1 chain: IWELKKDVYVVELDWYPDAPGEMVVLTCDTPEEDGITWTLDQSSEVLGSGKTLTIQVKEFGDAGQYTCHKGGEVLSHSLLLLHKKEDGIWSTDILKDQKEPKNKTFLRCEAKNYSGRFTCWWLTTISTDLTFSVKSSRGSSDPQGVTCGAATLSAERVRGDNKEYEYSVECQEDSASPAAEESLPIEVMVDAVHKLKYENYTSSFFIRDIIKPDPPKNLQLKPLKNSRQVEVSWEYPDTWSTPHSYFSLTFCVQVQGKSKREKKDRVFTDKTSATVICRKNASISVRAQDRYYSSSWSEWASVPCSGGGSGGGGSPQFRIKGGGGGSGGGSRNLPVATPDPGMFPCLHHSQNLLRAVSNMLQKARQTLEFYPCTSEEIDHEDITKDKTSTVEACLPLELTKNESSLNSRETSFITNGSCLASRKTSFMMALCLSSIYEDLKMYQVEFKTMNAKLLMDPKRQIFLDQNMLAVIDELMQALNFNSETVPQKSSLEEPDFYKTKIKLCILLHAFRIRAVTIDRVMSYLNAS

Destabilized IL-12 #12 = biological target: T2, Destabilized IL-12 #12
T2 chain: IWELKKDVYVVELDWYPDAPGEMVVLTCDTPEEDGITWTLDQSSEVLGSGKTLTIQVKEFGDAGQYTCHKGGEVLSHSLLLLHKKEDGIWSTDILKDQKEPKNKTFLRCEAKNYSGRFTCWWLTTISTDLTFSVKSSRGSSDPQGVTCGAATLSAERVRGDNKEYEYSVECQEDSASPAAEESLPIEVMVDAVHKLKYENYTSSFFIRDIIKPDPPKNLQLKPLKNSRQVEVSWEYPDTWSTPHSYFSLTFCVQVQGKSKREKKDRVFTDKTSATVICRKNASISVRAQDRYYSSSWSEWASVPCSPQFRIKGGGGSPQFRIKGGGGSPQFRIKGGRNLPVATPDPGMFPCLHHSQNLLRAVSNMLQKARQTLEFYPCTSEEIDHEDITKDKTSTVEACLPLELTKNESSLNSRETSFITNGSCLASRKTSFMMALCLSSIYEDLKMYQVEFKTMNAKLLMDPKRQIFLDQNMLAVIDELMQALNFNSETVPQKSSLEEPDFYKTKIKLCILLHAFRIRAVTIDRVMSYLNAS

Destabilized IL-12 #18 = biological target: T3, Destabilized IL-12 #18
T3 chain: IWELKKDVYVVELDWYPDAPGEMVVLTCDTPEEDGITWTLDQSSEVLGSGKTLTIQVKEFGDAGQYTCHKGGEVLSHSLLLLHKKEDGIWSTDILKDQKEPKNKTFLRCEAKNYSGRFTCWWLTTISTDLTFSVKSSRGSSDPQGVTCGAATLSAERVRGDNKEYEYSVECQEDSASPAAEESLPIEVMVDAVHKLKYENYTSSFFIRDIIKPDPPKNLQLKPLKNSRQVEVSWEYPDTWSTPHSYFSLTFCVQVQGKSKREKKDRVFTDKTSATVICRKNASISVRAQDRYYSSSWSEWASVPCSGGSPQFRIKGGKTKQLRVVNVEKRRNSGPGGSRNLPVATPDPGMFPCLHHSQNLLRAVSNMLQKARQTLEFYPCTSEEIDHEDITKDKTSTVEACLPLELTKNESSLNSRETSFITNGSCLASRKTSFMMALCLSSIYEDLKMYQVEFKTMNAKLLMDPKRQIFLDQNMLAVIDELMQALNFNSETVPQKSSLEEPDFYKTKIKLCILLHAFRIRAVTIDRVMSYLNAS

Destabilized IL-12 #21 = biological target: T4, Destabilized IL-12 #21
T4 chain: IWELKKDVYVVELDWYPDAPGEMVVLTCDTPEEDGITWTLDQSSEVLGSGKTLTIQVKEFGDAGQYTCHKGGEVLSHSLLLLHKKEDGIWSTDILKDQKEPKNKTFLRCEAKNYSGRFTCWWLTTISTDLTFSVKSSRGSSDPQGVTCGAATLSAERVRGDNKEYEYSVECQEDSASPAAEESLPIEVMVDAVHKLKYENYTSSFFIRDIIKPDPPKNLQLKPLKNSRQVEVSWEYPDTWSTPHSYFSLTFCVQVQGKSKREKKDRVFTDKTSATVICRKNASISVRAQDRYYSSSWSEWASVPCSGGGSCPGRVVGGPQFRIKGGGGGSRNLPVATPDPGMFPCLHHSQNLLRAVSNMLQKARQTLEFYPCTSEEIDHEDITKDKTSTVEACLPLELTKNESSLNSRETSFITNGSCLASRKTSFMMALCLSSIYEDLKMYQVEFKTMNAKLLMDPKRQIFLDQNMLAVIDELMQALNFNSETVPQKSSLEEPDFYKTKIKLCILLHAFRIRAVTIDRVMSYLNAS

Destabilized IL-12 #27 = biological target: T5, Destabilized IL-12 #27
T5 chain: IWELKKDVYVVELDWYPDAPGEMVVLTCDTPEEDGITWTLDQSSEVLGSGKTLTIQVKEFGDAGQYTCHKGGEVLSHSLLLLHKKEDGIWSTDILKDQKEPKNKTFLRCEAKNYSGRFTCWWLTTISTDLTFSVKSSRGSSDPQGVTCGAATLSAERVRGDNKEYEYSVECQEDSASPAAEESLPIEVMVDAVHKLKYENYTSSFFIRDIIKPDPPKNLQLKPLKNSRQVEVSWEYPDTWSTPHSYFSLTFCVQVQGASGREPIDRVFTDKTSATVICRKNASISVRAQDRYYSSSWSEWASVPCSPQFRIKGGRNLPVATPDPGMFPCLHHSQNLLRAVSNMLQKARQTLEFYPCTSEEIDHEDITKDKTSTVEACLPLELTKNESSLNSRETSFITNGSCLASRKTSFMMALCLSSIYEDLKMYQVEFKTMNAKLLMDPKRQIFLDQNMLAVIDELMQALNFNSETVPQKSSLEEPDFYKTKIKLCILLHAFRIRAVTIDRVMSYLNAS

Sequence of Destabilized IL-12 #4 (chain, as listed by the source): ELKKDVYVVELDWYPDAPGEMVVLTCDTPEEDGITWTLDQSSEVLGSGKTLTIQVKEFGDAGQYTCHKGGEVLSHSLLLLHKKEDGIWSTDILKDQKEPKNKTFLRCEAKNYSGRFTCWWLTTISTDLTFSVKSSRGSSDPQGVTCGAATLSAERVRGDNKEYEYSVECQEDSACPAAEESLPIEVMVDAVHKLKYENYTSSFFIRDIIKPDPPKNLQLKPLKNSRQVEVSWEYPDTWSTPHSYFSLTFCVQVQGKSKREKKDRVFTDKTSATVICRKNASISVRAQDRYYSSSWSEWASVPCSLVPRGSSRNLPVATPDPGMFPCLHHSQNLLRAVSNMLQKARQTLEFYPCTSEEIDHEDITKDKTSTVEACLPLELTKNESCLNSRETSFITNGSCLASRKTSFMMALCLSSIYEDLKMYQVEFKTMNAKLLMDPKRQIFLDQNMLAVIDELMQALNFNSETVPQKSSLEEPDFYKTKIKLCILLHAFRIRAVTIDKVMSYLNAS

Question: For thrombin, which “fold reduction in biological activity (NK-92 assay) after thrombin digestion, against wild-type single chain IL-12” value (“fold reduction in biological activity” for short) (Destabilized IL-12 #2 [1]) is on record?
Answer: (~11 fold decrease*)

Question: And the “thrombin cleavage (67 U/mL, 20 hours, 37 degrees C), anti-p35 immunoblot, reducing conditions” value (Destabilized IL-12 #2 [1])?
Answer: Under reducing conditions, thrombin cleavage of all three IL-12 mutants was detected

Question: And the “thrombin cleavage (67 U/mL, 20 hours, 37 degrees C), anti-p40 immunoblot, reducing conditions” value (Destabilized IL-12 #2 [1])?
Answer: Under reducing conditions, thrombin cleavage of all three IL-12 mutants was detected

Question: And the “fold reduction in biological activity” value (Destabilized IL-12 #4)?
Answer: (~1.5 fold decrease*)

Question: And the “thrombin cleavage (67 U/mL, 20 hours, 37 degrees C), anti-p35 immunoblot, non-reducing conditions” value (Destabilized IL-12 #4)?
Answer: under non-reducing conditions, thrombin cleavage of Destabilized #4 was not detected

Question: And the “thrombin cleavage (67 U/mL, 20 hours, 37 degrees C), anti-p35 immunoblot, reducing conditions” value (Destabilized IL-12 #4)?
Answer: Under reducing conditions, thrombin cleavage of all three IL-12 mutants was detected

Question: And the “thrombin cleavage (67 U/mL, 20 hours, 37 degrees C), anti-p40 immunoblot, non-reducing conditions” value (Destabilized IL-12 #4)?
Answer: under non-reducing conditions, thrombin cleavage of Destabilized #4 was not detected

Question: What about the “thrombin cleavage (67 U/mL, 20 hours, 37 degrees C), anti-p40 immunoblot, reducing conditions” value (Destabilized IL-12 #4) of the same molecule?
Answer: Under reducing conditions, thrombin cleavage of all three IL-12 mutants was detected

Question: And the “fold reduction in biological activity” value (Destabilized IL-12 #5 [2])?
Answer: (~9 fold decrease*)

Question: What about the “thrombin cleavage (67 U/mL, 20 hours, 37 degrees C), anti-p35 immunoblot, reducing conditions” value (Destabilized IL-12 #5 [2]) of the same molecule?
Answer: Under reducing conditions, thrombin cleavage of all three IL-12 mutants was detected

Question: And the “thrombin cleavage (67 U/mL, 20 hours, 37 degrees C), anti-p40 immunoblot, reducing conditions” value (Destabilized IL-12 #5 [2])?
Answer: Under reducing conditions, thrombin cleavage of all three IL-12 mutants was detected

Question: For thrombin (enzyme), which thrombin dose needed to reduce IFNg secretion of NK-92 cells (HTRF) (Destabilized IL-12 #2 [3]) is on record?
Answer: 10 U/mL

Question: What about the thrombin dose needed to reduce IFNg secretion of NK-92 cells (HTRF) (Destabilized IL-12 #5 [4]) of the same molecule?
Answer: 10 U/mL

B1: human Plasmin (23.3 Units/mg; Millipore) (protein)
chain: KVYLSECKTGNGKNYRGTMSKTKNGITCQKWSSTSPHRPRFSPATHPSEGLEENYCRNPDNDPQGPWCYTTDPEKRYDYCDILECEEECMHCSGENYDGKISKTMSGLECQAWDSQSPHAHGYIPSKFPNKNLKKNYCRNPDRELRPWCFTTDPNKRWELCDIPRCTTPPPSSGPTYQCLKGTGENYRGNVAVTVSGHTCQHWSAQTPHTHNRTPENFPCKNLDENYCRNPDGKRAPWCHTTNSQVRWEYCKIPSCDSSPVSTEQLAPTAPPELTPVVQDCYHGDGQSYRGTSSTTTTGKKCQSWSSMTPHRHQKTPENYPNAGLTMNYCRNPDADKGPWCFTTDPSVRWEYCNLKKCSGTEASVVAPPPVVLLPDVETPSEEDCMFGNGKGYRGKRATTVTGTPCQDWAAQEPHRHSIFTPETNPRAGLEKNYCRNPDGDVGGPWCYTTNPRKLYDYCDVPQCAAPSFDCGKPQVEPKKCPGRVVGGCVAHPHSWPWQVSLRTRFGMHFCGGTLISPEWVLTAAHCLEKSPRPSSYKVILGAHQEVNLEPHVQEIEVSRLFLEPTRKDIALLKLSSPAVITDKVIPACLPSPNYVVADRTECFITGWGETQGTFGAGLLKEAQLPVIENKVCNRYEFLNGRVQSTELCAGHLAGGTDSCQGDSGGPLVCFEKDKYILQGVTSWGLGCARPNKPGVYVRVSRFVTWIEGVMRNN
Question: Which “proteolytic digestion, 1 hour, reducing SDS-PAGE and anti-p40 Western blot” value (Destabilized IL-12 #11) does the source give for B1 here?
Answer: Partial digestion of DSIL-12#11, DSIL-12#12, DSIL-12#21 and DSIL-12#18 was detected with as little as 0.05 mU of plasmin

Question: And the “proteolytic digestion, 1 hour, reducing SDS-PAGE and anti-p40 Western blot” value (Destabilized IL-12 #12)?
Answer: Partial digestion of DSIL-12#11, DSIL-12#12, DSIL-12#21 and DSIL-12#18 was detected with as little as 0.05 mU of plasmin

Question: What about the “proteolytic digestion, 1 hour, reducing SDS-PAGE and anti-p40 Western blot” value (Destabilized IL-12 #18) of the same molecule?
Answer: Partial digestion of DSIL-12#11, DSIL-12#12, DSIL-12#21 and DSIL-12#18 was detected with as little as 0.05 mU of plasmin

Question: What about the “proteolytic digestion, 1 hour, reducing SDS-PAGE and anti-p40 Western blot” value (Destabilized IL-12 #21) of the same molecule?
Answer: Partial digestion of DSIL-12#11, DSIL-12#12, DSIL-12#21 and DSIL-12#18 was detected with as little as 0.05 mU of plasmin

Question: What about the “proteolytic digestion, 1 hour, reducing SDS-PAGE and anti-p40 Western blot” value (Destabilized IL-12 #27) of the same molecule?
Answer: 2.5 mU of plasmin were required for partial digestion of DSIL-12#27

Reference: patent US20190062394A1
